Source: the DeepSol protein solubility set

Experiment: soluble on expression in E. coli; label from the status in PepcDB or PDB records

Sequence	soluble on expression in E. coli
MIDSRLLAWAYLSKVVEGPNAHLQKLLKEGHDVERIAFGIKHREEWIGEGLLKNTDSRYSIDTAQTDLETIAKLGGRLITPEDDEWPMEELDHAFGFAASGMSDHVRTYQDDALPPHALWIRGGNLRTLSAQSVTLVGTRAISQYGTEVTREFTQNLVSHQWTIISGGALGVDSVAHSEAVRAQGSTIAIAACGLDRSYPSHNRDLFNQIAKSGKGALVSEYPPGTPPQRHRFLTRNRLVAALSQGTVVVEAAWRSGALNTLSWCAGLGRIAMAVPGPVNTAGSLGCHERIRNGSAQMVTSADDVRSLLGAVGAMDSQTQYELNFAATPVQGLTRNELRVFDALDDRGEGREAASIATEAGLTLQLTIFLLIALNKRGIVKRDGTAWSRNAEMP	not soluble
GSHMASTPDKFNDGNLNIAYAKPTTQSSVDYNGDPNRAVDGNRNGNFNSGSVTHTRADNPSWWEVDLKKMDKVGLVKIYNRTDAETQRLSNFDVILYDNNRNEVAKKHVNNLSGESVSLDFKEKGARYIKVKLLTSGVPLSLAEVEVFRES	soluble
MKYSSFLKQAEENLVPIFSEIDAKVKENLYKVIEAFRHHRVGVQHFAGVSGYGHDDLGRDTLDGVFAQVMGAESAAVRVQFVSGTHAIACALYGILRPGDELLSAVGSPYDTLEEVIGLRGSCQGSLADFNISYRQLPLTAAGTVDWQGLETAVRPETRLVLIQRSCGYSWRPSLAIADIARIIEIVKAQNPRTLCFVDNCYGEFIETVEPTAIGVDLMAGSLIKNPGGTIVTAGGYLAGKEEWVEAGAYRLTAPGIGLEHHHHHH	not soluble
MALVRPFPIVQVVGFQNSGKTTFIERILEKASEQGVHLGCLKHHGHGGEPQTLTEGKDTDRYKAAGADVTAVEGAGVLQLTARRNWDLARLIELYQFLETDCLLIEGFKKAPYPKVVILSEKEDLEALQAVNIIAIIYRKKEHMTEHQGLPVFHADDPVAVDFVLSQLKGESA	soluble
MGSDKIHHHHHHMKVLNLLSAGGIGGIEQLCSNIAKYANYDNTFCFMFEDGQIYKEMKKSGADVISFAECSSKKISKKRWESLCELAEKADIIVTHHCTIALHIYYCALKKRFKNKKFVMTIHSCFDPELNYNYGSWIKNKIAKWNIEEALKISDKIIFVSEAGRRSYLDNFNIDVTKTKVIYNGVEVSAISIDSIKLENNYTRITYIGRVEKIKGLDLFVCALKKLLNDDSNIKVWIIGDGSFRNELEMLVQKLDLTGVIEFTGAKRNIGDYLRKTDLFIYPSTCQEVFGISIVEAMSYGVPCVANNVGGIPEIIENDYNGFITSKTNDDELYKCMYKFIKLDPKLITQMRNNCLLTAEKFSINCTIDNLEKTLKGMM	not soluble
MPAKPQLISPAGDWTSMRAALDAGADAVYFGAEGFNMRAASKGFSPGDFGGIARLCRSHGAKAYLALNSVIYDAELDEVDRTAAAAKAAGLDAVICWDLAVIEACRRHEMPIHLSTQASVSNINALRFYASLGARMIVLARELTLEQTAAITKCIAAEKLPVTVESFVHGAMCVAISGRCFLSQELFGRSANRGECVQPCRRSYRIADVEEGFELELGSNYVMSPKDLCALPFLDKLFDAGIGAFKIEGRNRSPEYVATTTAAYRKAIDFIAAHRNDKDFDEAYRSLTDRLQNDLVRVYNRGFSEGFFFGKPADAWTKHSGSAATETKSYVGVVRKYFPKAGVAEILVHAPSVDSGVRLSIQGPATGLVTVPDAELHLDGQLANRIEQGQIFTVRCDRVRKNDKVYVLLKN	not soluble
MGSDKIHHHHHHMFIGFDYGTANCSVAIMRDGHPQLLTMENNSALLPSMLCAPTREAVSEWLYRHHDVPATDEETQALLRRAIRYNREEDIEVGAQSVQFGLASLAHYIDDPQEVWFVKSPKSFLGASGLKPQQVALFEDLVCAMMVHIRHTAHSQLPEAITQAVIGRPINFQGLGGDDANRQAQGILERAAKRAGFQEVVFQYEPVAAGLDYEATLREEKRVLVVDIGGGTTDCSMLLMGPQWRQRADRENSLLGHSGCRVGGNDLDIALAFKNLMPLLGMGGETEKGIALPVLPWWNAVAINDVPAQSDFYSSANGRLLNDLVRNAREADKVALLLKVWRQRLSYRLVRCAEESKIALSGQADVTARLPFISDDLAVAISQQGLEAALDQPLTRILEQVQLALDSAQEKPDVIYLTGGSARSPLIKKALSEQLPGIPVAGGDDFGSVTAGLARWAEVVFR	not soluble
MNDDKLRSLFASLATLTQQGPIPVQAYSMLAGQHSTEVLAEHMRLRWLSDGRFGPVAANILMHIHKSDPKDISLSSNVLALLLNDYRNRLSVRNDSRLMFRNCVKTLFSMYPVYVKMDECVSKCFIKPMFSSLDALIDDAPDTEDLETAGILLSENGRVLHDLNSYLVERIIVKLRHKLISEDPIVTKHVRQIFIHVYDLWAFGWSELNIPECLLTLSAEGKLSIVDQTPLRKNDISKQEFGSKESIV	not soluble
MSLATIVVKTTPDNEIAYWPTGKEHLFCIALGTKAQAGPLGEFVHQFRTDRPGMVQVWTQGSDSFTLYLTPGSKDTITVTKDTLIISGTNSAYNRCLKTVNDYQKYSDKLVYMQPHELRGITSLEQYHRLADARMRQALDAVNASGLNEEFLAEQRAHIDYIRRSIFIHIARQLSRKEKLPEDWQRELTEVINSSVNGDYLRSYRGIGFFVNDLVMMQFTNLENGDLKEIKEYASFLFDRYRKFFTGDNLQYMQAQLIYEDEFQGSKTPSIPQLYETYRAEFPNSPFLNVLEPGVKENLRFQNSRITDKDYHILTCDSTITSLEDAVKPFKGKVVYIDVWATWCGPCLKEFQYLPTLKEKAHNMDVVYLYISIDRPEERKKWEKTIAYHQLKGYHLLVNEKLGKSLYTELGNERQILSIPCFVIIDKTGKIVIRHAAAPSEPEKVIEQLSTYYNKEGHHHHHH	soluble
MGSDKIHHHHHHMMNTSTSDPIGAAWLIRYASIELVSPLYITSSIGGRRQTYKEGNVIHNAYQETARPLDTIIAHLQFHMRHEVLNLELLVRLFEQIGADDVQAWVNAEPTGSYARRMAFLYEWLMDKELAVSSNLGGNYVDALDTKKMVTSSPEHIIKNARWRINDNLAGTRHFCPMLVKTEAFTQAAALDIATMVEKLNDEFGQDLLMRASVWMTLRESKASFTIEGEGKELKRIERFAEVMARRTGKGDIPLDPESLAELQQEILGSKTVIQQYGIRQSPVFVSHTQVNGFKEIVHYIAPPSEDIAYKLTGLQALMKKTEGQSALMRSAVASFAFVYIHPLADGNGRVHRFLINDVLRRDQVIHEPIILPISQAIAEHPSDRHAYDKILDRVSVPLMRQIRDHYRFDKQAVTYPDGIRSNLNFADSHLIQPAWRFMDLTPHVQYLSGLIAHVIEKEMHNESQYLRQHDHARLAIKEIVEMPNSYADRIIRSMLQNKGAKSNKLLQDYPFLANEAVWDDVFSVVVEIFK	not soluble
MKHLSPERLHVTQTAGITQLSPVNGRLYTLTHSDTTGALFLTVSRAFVTDQLTSQRDEVLGEWKQAGQQLVLFLYVFIGNRQMGRQENARRANVFKKELPLALEAIRYGDRAFFHTYPFCDWCPIFIHFTSEYPELNRTEYYGTPYLYR	not soluble
GPGSMVAKQHFLAAVKMTPARGAAAALSPPQTAEVVGRTAAGGKGCSGSFVDRRLENVMARAREMGWTSPESLIESLKAAQWHSHGKTPAIAEAEAAALPSPHVPAFKPDALSSSSDRHAQPRLPQPRDETPHQARKGAAVSGANSSITECWSGHGPVSQQPHTPHQGADACRAFPSSRTESADSAMRVEATRVLCSGGAAHAGLPSESLLSPPAAESSRVAGTGHAYPPAPLQGHEGLVSSGLTNPLTRLTMPTSATAGAAAAQPLIELEQELVKLRHLVRTLESKQFVHAHQSSAQASELQAQCAELQHQQLAQAKELRLALARLISVGNELEGLRDVKTHLQMQLTASQQESARLRDALLMGETRARDVQ	not soluble
MRPDDKYHEKQAQVEATKLKQKVEALSPGDRQQIYEKGLELRSQQSKPQDASCLPALKVSDIEPTIPVTELDVVLTAGDIPVQYCAQPTNGMVYFRAFSSLNTLPEELRPYVPLFCSVLTKLGCGLLDYREQAQQIELKTGGMSASPHVLPDDSHMDTYEQGVLFSSLCLDRNLPDMMQLWSEIFNNPCFEEEEHFKVLVKMTAQELANGIPDSGHLYASIRAGRTLTPAGDLQETFSGMDQVRLMKRIAEMTDIKPILRKLPRIKKHLLNGDNMRCSVNATPQQMPQTEKAVEDFLRSIGRSKKERRPVRPHTVEKPVPSSSGGDAHVPHGSQVIRKLVMEPTFKPWQMKTHFLMPFPVNYVGECIRTVPYTDPDHASLKILARLMTAKFLHTEIREKGGAYGGGAKLSHNGIFTLYSYRDPNTIETLQSFGKAVDWAKSGKFTQQDIDEAKLSVFSTVDAPVAPSDKGMDHFLYGLSDEMKQAHREQLFAVSHDKLLAVSDRYLGTGKSTHGLAILGPENPKIAKDPSWIIR	not soluble
AEPQPPSGGLTDEAALSCCSDADPSTKDFLLQETMLRVKDPKKSLDFYTRVLGMTLIQKCDFPIMKFSLYFLAYEDKNDIPKEKDEKIAWALSRKATLELTHNWGTEDDETQSYHNGNSDPRGFGHIGIAVPDVYSACKRFEELGVKFVKKPDDGKMKGLAFIQDPDGYWIQILNPNKMATLM	soluble
SKTNPRLSSLIADLKSAARSSGGAVWGDVAERLEKPRRTHAEVNLGRIERYAQEDETVVVPGKVLGSGVLQKDVTVAAVDFSGTAETKIDQVGEAVSLEQAIENNPEGSHVRVIR	soluble
MKKIVFLLLLCVACCMNAQEFHLIPKVGLNLANTTGEVDSKVRPGLNIGLGGDVMLTERFGIETGVYYSMQGSKYKGGGVSYTDKLDYINVPVYAKEFIYKGLYVFGGPQFSFNVNSENKSSSDYGTTVIGMNVIRKFDCGVGLGAGYQFERGLLISLNYNIGLINVNKSWASDSNPKANNSVVQLNVGWRFAL	not soluble
RSKYNAKKVVIDNIKFDSKAEAAYYQQLKLLKMSGEVVSFDLQPEFVLQESFRKNGKLYRAIKYKADFLVRYSDGHEELIDIKGMLTKEFRIKQKLFELRYMQSIKCLKLKGRNFVEV	not soluble
MRLDRYLSNSGVGTRKEVKKLIKQGRVTVNGRVVLDPGHPVLENDAVALDGEVVRFHKKVYILFYKPSGYVTSTKDPHSETIMEFLPPLKGIFPVGRLDKDAEGLLIITNDGDFAHRVISPKWSVEKEYIVKVEGEVTEDKIEKLKNGVTLRDGFFAKAKRVEKLSNDTLKIVITEGKYHQIKRMTAAVGLKTVHLKRTRIGGLVLPDDMKPGEYRFLSEEEVKKVFEREDQKEDTPRS	not soluble
VTAEEHVESEPLTKRDFEALARFRFGIRRYVRFSEDTVRDHGLTPQHYQLLLALKGFPGREWATMRELADRLQLRHHSVVELVDRAQKQGLVERAPHPSDARAVRVELTEHGQLILARLSAMHRDELLRLGPALELPIWDDPPQDR	not soluble
DKLTRQPFFIKLINYLQIHDDVTLRQIKRNFADTEHLERSIEDYVQAGYVLRENKHYYNAFELLENLDGLTLDSQIFVDDQSSIYQDLLALTFETYLSNQTNAALIIEKTDISRDALTLSNYFFKLNENFPLSRKQKPLYHLLGDVNPNYALKYMTTFLLKFWGKDVVKQKRPDIFVQALVLLGYLEQVGKQSYCLKMTFDKEKLIFAS	soluble
MDLFSQFFQENQKKFLSFAYSYTRNKAAAEDILMEAMVSLWENREKWEKDSNLHALLLTIIKNKSLNYLEHEQVRMKAEEAINTHKQRELDLRISTLEACEPATIFDTEIQRIVYKTLEQLPEQSRHIFILSRYHNTPNKKIAEQLGISIKSVEFHITKTLKLLRLELKDYLISLLF	not soluble
MGREFLDLFEQWAESYDQSVEGYDEQYRDVFAGYDRILSTVADKAGQVVLEFGIGTGNLTKKLLERGKTVYGIEPSAPMRKKAAEKLGERAVIMDGDFLQFPLPPEPIDTIASTYAFHHLTDAEKDEAIAKYSQLLHSGGKIVFADTAFRDKEAFRQTVEAARARGFHDLADDLEREYYTTLDVLASLFANHGFSVSFAQQNAFVWVMEAVKQTTLEHHHHHH	soluble
